Experimental data reported in patent US20250092106A1 (University of California, published 2025).

Molecular target: T1, Recombinant soluble integrin αvβ3 (UniProt P06756 31-992; P05106 27-718)
T1 construct: Soluble heterodimer made 'as described [22]'; also called soluble αvβ3; αvβ3 protein
Assay: SPR; soluble αvβ3 immobilized on CM5 chip, HBD as analyte, 1 mM Mn2+

T1 sequence (P06756 31-992, chain 1 of 2): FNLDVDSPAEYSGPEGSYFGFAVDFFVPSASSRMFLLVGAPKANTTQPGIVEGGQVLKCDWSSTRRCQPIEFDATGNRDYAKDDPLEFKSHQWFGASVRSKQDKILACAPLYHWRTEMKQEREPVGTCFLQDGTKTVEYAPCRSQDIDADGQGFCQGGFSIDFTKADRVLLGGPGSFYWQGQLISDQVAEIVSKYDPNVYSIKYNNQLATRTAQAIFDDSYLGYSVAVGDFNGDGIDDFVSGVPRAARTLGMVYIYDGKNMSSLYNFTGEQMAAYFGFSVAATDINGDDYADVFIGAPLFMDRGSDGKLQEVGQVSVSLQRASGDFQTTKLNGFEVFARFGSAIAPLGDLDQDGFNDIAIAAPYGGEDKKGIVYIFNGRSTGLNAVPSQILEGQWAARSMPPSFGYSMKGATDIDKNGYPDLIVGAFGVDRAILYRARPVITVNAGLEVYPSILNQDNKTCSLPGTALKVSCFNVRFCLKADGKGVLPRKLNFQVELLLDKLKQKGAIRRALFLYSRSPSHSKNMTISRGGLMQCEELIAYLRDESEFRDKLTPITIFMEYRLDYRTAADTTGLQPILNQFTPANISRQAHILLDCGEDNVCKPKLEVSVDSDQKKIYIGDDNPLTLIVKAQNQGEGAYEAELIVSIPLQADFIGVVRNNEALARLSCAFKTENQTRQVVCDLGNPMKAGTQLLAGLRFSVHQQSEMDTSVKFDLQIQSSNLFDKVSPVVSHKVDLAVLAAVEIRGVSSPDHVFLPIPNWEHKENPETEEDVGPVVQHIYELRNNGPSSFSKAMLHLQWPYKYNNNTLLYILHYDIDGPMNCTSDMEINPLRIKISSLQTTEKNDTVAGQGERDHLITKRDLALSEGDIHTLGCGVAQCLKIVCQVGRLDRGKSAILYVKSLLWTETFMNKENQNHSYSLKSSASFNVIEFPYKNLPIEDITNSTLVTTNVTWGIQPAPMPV
T1 sequence (P05106 27-718, chain 2 of 2): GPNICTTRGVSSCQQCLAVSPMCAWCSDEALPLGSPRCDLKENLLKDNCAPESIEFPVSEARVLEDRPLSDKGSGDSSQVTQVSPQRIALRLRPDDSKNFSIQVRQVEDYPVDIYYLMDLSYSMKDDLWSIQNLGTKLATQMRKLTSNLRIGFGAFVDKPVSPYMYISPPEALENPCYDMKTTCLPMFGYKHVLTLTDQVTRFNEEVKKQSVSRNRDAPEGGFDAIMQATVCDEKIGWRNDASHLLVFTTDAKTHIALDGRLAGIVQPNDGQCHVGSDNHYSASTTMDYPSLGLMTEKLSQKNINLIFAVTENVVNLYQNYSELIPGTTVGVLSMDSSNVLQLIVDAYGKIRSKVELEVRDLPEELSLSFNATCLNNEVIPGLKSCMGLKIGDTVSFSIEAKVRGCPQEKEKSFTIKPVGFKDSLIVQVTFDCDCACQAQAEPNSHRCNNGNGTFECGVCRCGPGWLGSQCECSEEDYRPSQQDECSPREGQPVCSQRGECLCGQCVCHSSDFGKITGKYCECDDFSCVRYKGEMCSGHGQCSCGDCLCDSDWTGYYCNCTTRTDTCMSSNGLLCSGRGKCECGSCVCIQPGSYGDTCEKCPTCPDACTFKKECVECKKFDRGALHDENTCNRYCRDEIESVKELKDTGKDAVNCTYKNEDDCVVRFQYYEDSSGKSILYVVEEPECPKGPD

Kd: 470 nM
B1: VEGF165 heparin-binding domain (HBD, residues 111-165), wild type (ligand)
chain: QALARASGRGGRVARRGAEESGPPHSPSRRGSASRAGPGRASETMNFLLSWVHWS
